# Results as given in paper PMC3844103 (Biochemistry, 2013).
# Non-standard residues stand in square brackets, D forms with d. pY = N[C@@H](Cc1ccc(OP(=O)(O)O)cc1)C(=O)O
# B1: pTyr783 peptide of PLC-γ1 (peptide)
# peptide: Ac-DYGALYEGRNPGF[pY]VEAN-NH2
# SMILES: CC(=O)N[C@@H](CC(=O)O)C(=O)N[C@@H](Cc1ccc(O)cc1)C(=O)NCC(=O)N[C@@H](C)C(=O)N[C@@H](CC(C)C)C(=O)N[C@@H](Cc1ccc(O)cc1)C(=O)N[C@@H](CCC(=O)O)C(=O)NCC(=O)N[C@@H](CCCNC(=N)N)C(=O)N[C@@H](CC(N)=O)C(=O)N1CCC[C@H]1C(=O)NCC(=O)N[C@@H](Cc1ccccc1)C(=O)N[C@@H](Cc1ccc(OP(=O)(O)O)cc1)C(=O)N[C@H](C(=O)N[C@@H](CCC(=O)O)C(=O)N[C@@H](C)C(=O)N[C@@H](CC(N)=O)C(N)=O)C(C)C
# Target: T1, C-terminal SH2 (cSH2) domain of PLC-γ1 (rat, UniProt P10686 664-766)
# T1 sequence (looked up): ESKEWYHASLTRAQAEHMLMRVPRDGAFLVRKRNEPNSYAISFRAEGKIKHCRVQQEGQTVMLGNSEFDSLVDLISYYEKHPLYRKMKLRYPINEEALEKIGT
# Assay: crystal structure
binder,measurement,value
B1,binding result,binds
